Experimental data reported in patent US20240382559A1, “PHARMACEUTICAL COMPOSITION COMPRISING KAI1 POLYPEPTIDE FOR INHIBITION OF HEPATIC FIBROSIS AND USE THEREOF” (PUSAN NATIONAL UNIVERSITY INDUSTRY-UNIVERSITY COOPERATION …, priority 2021, published 2024).

Tests used:
[1] = test system: mouse liver cell line (AML12); test: qPCR of fibrosis-related genes in TGF-β1-treated liver cell line, rhKAI1 / pepKAI1 WT / pepKAI1 Mut; format: cell-based; conditions: 200 or 500 ng/mL for 2 hours, then TGF-β1 2 ng/ml 24 hours
Experimental: The effect of wild type KAI1 peptide (pepKAI1 WT) or mutant KAI1 peptide (pepKAI1 Mut) on fibrosis induced by treatment with TGF-β1 was confirmed in mouse liver cell line (AML12).
Specifically, the AML 12 cells were treated with recombinant human KAI1 protein (rhKAI1), wild type KAI1 peptide (pepKAI1 WT), and mutant KAI1 peptide (pepKAI1 Mut) at a concentration of 200 ng/mL or 500 ng/mL, respectively, and reacted for 2 hours. Thereafter, the cells were treated with TGF-β1 at a concentration of 2 ng/ml and cultured for an additional 24 hours, and then the cells were collected. RNA from the collected cells was extracted with Trizol, cDNA was synthesized, and then changes in expression of fibrosis-related genes (α-SMA, Col1a1, TIMP1, Vimentin, TGF-β, and fibronectin) were confirmed by qPCR analysis.

[2] = test system: acute hepatic fibrosis model mice; test: qPCR of fibrosis-related genes in liver tissue of CCl4 acute hepatic fibrosis animal model; format: in vivo, mouse; conditions: 4 μg KAI1 protein i.p. day 8, liver day 11, vs. CCl4
Experimental: (§1) Specifically, 7-week-old C57BL/6 male mice was prepared, and CCl4 was diluted in corn oil at a concentration of 1 mL/kg. In order to induce acute liver injury, the mice were injected intraperitoneally with the diluted CCl4 twice a week. As a control group, the mice were intraperitoneally injected with the same amount of the corn oil.
(§2) As a KAI1 protein, a polypeptide (Human CD82/KAI-1 Protein (His Tag), Sino Biological Inc.) comprising a KAI1 fragment comprising a polypeptide (extracellular domain, SEQ ID NO: 4) consisting of the 111st to 228th amino acid sequence from the N terminus in a polypeptide consisting of the amino acid sequence of SEQ ID NO: 1 was used. On the 8th day after the start of the experiment, 4 μg of KAI1 protein was injected intraperitoneally per mouse, and on the 11th day, the mice were sacrificed and liver tissue was extracted.
RNA was obtained from the liver tissue extracted in Example 2.1. The RNA from the liver tissue was obtained using Favorgen® Trizol according to the manufacturer's instructions. The RNA was reverse transcribed into cDNA using a cDNA synthesis kit (Bioneer corp.). Thereafter, real-time PCR (qPCR) was performed to confirm changes in the expression levels of fibrosis-related genes Col1a1 (collagen type 1), fibronectin, and TGFβ1 (transforming growth factor-β1).

[3] = test system: human hepatic stellate cell line (LX2); test: qPCR of senescence-related genes in hepatic stellate cell line; format: cell-based; conditions: 200 or 500 ng/mL, 24 or 48 hours, vs. control group
Experimental: (§3) Specifically, the LX2 cell line was treated with recombinant human KAI1 protein (rhKAI1) at a concentration of 200 ng/mL or 500 ng/mL, respectively. Thereafter, the cells were cultured for 24 hours or 48 hours and collected to confirm cell proliferation and fibrosis-related gene expression in the cells. The cell proliferation was measured using MTS assay. RNA from the collected cells was extracted with Trizol, cDNA was synthesized, and then changes in expression of fibrosis-related genes (α-SMA, Col1a1, Vimentin, TGF-β, and GFAP) were confirmed by qPCR analysis.
It is known that hepatic stellate cells can inhibit hepatic fibrosis by inducing senescence in the liver. Therefore, the expression of senescence-related genes (HGMA1, p16, p21 and p53, SIRT1) was confirmed in human hepatic stellate cell line (LX2) treated with KAI1 protein in the same manner as in Example 4.1.

[4] = test system: human hepatic stellate cell line (LX2); test: Immunoblotting of fibrosis-related proteins in hepatic stellate cell line; format: cell-based; conditions: 200 or 500 ng/mL, 24 or 48 hours, vs. untreated group
Experimental: as §3
The expression of fibrosis-related proteins was confirmed in human hepatic stellate cell line (LX2) treated with KAI1 protein in the same manner as in Example 4.1. At this time, anti-Vimentin antibody (sc-5565, Santa Cruz Biotech.), anti-Col1α1 antibody (NBP1-30054, Novus Biological), anti-α-SMA antibody (A5228, Sigma-Aldrich), anti-GFAP antibody (Z0334, Dako), and anti-GAPDH antibody (MCA4739, AbD Serptec) were used as primary antibodies, and HRP-conjugated anti-rabbit antibody (ADI-SAB-300-J, Enzo Life Sciences) and anti-mouse antibody (ADI-SAB-100-J) were used as secondary antibodies.

[5] = test system: mouse liver cell line (AML12); test: Immunoblotting of ZO-1 (EMT) in TGF-β1-treated liver cell line; format: cell-based; conditions: 500 ng/ml for 2 hours, then TGF-β1 24 or 48 hours
Experimental: The epithelial-mesenchymal transition (EMT) process has been proposed as one of the mechanisms of fibrosis. Therefore, the effect of KAI1 protein on the EMT process induced by TGF-1 in mouse liver cell line (AML12) was confirmed.
Specifically, the AML12 cells were treated with of KAI1 protein at a concentration of 500 ng/ml and reacted for 2 hours. Thereafter, the cells were treated with TGF-β1 and cultured for an additional 24 hours or 48 hours, and then the cells were collected. The collected cells were lysed in RIPA buffer containing protease inhibitors to extract proteins, and immunoblotting was performed by loading an equal amount of proteins. The protein expression level of ZO-1 was confirmed using an antibody of ZO-1 (anti-ZO antibody, 13663, Abcam), an epithelial biomarker during the EMT process. At this time, anti-tubulin antibody (T5168, Sigma-Aldrich) was used as an internal control, and HRP-conjugated anti-rabbit antibody (ADI-SAB-300-J, Enzo Life Sciences) was used as a secondary antibody.

[6] = test system: human hepatic stellate cell line (LX2); test: Immunoblotting of senescence-related proteins in hepatic stellate cell line; format: cell-based; conditions: 200 or 500 ng/mL, 24 or 48 hours, vs. untreated group
Experimental: as §3
The expression of senescence-related proteins was confirmed in human hepatic stellate cell line (LX2) treated with KAI1 protein in the same manner as in Example 4.1. At this time, anti-SIRT1 antibody (ab32441, Abcam), anti-p16 antibody (10883-1-ap, Protein tech.), and anti-GAPDH antibody (MCA4739, AbD Serptec) were used as primary antibodies, and HRP-conjugated anti-rabbit antibody (ADI-SAB-300-J, Enzo Life Sciences) and anti-mouse antibody (ADI-SAB-100-J) were used as secondary antibodies.

[7] = test system: human hepatic stellate cell line (LX2); test: Cell proliferation by MTS assay in hepatic stellate cell line; format: cell-based; conditions: rhKAI1 200 or 500 ng/mL, 24 or 48 hours
Experimental: (§4) It is known that fibrosis occurs due to excessive proliferation and activation of hepatic stellate cells. Therefore, changes in fibrosis-related gene expression by treatment with KAI1 protein were confirmed in human hepatic stellate cell line (LX2).
as §3

[8] = test system: acute hepatic fibrosis model mice; test: H&E staining of liver tissue in CCl4 acute hepatic fibrosis animal model; format: in vivo; conditions: C57BL/6 male mice, CCl4 i.p. twice a week; 4 μg KAI1 protein i.p. per mouse on day 8, liver extracted day 11
Experimental: as §1, §2
The liver tissue extracted in Example 2.1. was fixed in 10% (v/v) formalin solution. Thereafter, the liver tissue was embedded in paraffin and sectioned to a thickness of 4 μm to prepare tissue sections. After deparaffinization and superhydration, H&E (hematoxylin & eosin) staining was performed and observed under an optical microscope.

liver cell line (AML12) = test: qPCR of fibrosis-related genes in TGF-β1-treated liver cell line, KAI1 protein; format: cell-based, mouse; conditions: 200 or 500 ng/mL for 2 hours, then TGF-β1 2 ng/mL 24 hours
Experimental: In order to confirm the activity of KAI1protein to inhibit hepatic fibrosis at the cellular level, the liver cell line (AML12), which had hepatic fibrosis induced by treatment with TGF-β1, was treated with KAI1 protein to confirm changes in the expression of fibrosis-related genes.
Specifically, the AML 12 cells were cultured in DMEM/F12 medium containing 10% (v/v) fetal bovine serum (FBS), 1% (w/v) penicillin-streptomycin, 10 μg/mL insulin, 5.5 μg/mL transferrin, 5 ng/mL selenium, and 40 ng/ml dexamethasone. The AML12 cells were treated with KAI1 protein at a concentration of 200 ng/ml or 500 ng/mL, respectively, and reacted for 2 hours. Thereafter, the cells were treated with TGF-β1, a fibrosis-inducing cytokine, at a concentration of 2 ng/mL and cultured for an additional 24 hours, and then the cells were collected. RNA from the collected cells was extracted with Trizol, cDNA was synthesized, and then changes in expression of fibrosis-related genes (α-SMA, Col1a1, TIMP1, and MMP9) were confirmed by qPCR analysis.

[9] = test system: human hepatic stellate cell line (LX2); test: qPCR of fibrosis-related genes in hepatic stellate cell line; format: cell-based; conditions: rhKAI1 200 or 500 ng/mL, 24 or 48 hours
Experimental: as §4, §3

pepKAI1 Mut: mutant peptide with both Y*C and EED substituted with alanine, NRPEVTAPASCEVKGAAANS (SEQ ID NO: 3) (Mutant KAI1 polypeptide)
not reduced: expression of fibrosis-related genes (α-SMA, Col1a1, TIMP1, Vimentin, TGF-β, fibronectin) increased by TGF-β1 (qPCR) [1]

pepKAI1 WT: 20 amino acid functional KAI1 peptide with Y*C and EED motifs, NRPEVTYPCSCEVKGEEDNS (SEQ ID NO: 2) (Wild type KAI1 polypeptide)
further reduced: fibrosis-related gene expression compared to the group treated with rhKAI1 protein (qPCR) ([1]; comparison with rhKAI1)
reduced: expression of fibrosis-related genes (α-SMA, Col1a1, TIMP1, Vimentin, TGF-β, fibronectin) increased by TGF-β1 (qPCR) [1]

B1: KAI1 protein: Human CD82/KAI-1 Protein (His Tag), Sino Biological; comprises extracellular domain, amino acids 111 to 228 of SEQ ID NO: 1 (SEQ ID NO: 4) (protein)
chain: GKLKQEMGGIVTELIRDYNSSREDSLQDAWDYVQAQVKCCGWVSFYNWTDNAELMNRPEVTYPCSCEVKGEEDNSLSVRKGFCEAPGNRTQSGNHPEDWPVYQEGCMEKVQAWLQENL
modifications: His tag; Extracellular domain of recombinant human KAI1 protein
tendency to increase: gene expression of GFAP, marker gene for resting stellate cells (qPCR) [9]
increased: expression of senescence marker gene HGMA1 (qPCR) [3] | expression of senescence marker gene p16 (qPCR) [3] | expression of senescence marker gene p21 (qPCR) [3] | expression of senescence marker gene p53 (qPCR) [3] | protein expression of GFAP (immunoblotting) [4] | expression of p16, a senescence marker protein (immunoblotting) [6]
significantly reduced: cell proliferation (MTS assay) [7] | gene expression of Col1a1 (qPCR) [9] | gene expression of TGF-β (qPCR) [9] | gene expression of Vimentin (qPCR) [9] | gene expression of α-SMA (qPCR) [9]
reduced: gene expression of Col1a1 in liver tissue (qPCR) [2] | gene expression of TGF-β1 in liver tissue (qPCR) [2] | gene expression of fibronectin in liver tissue (qPCR) [2] | expression of SIRT1, a senescence inhibition marker (qPCR) [3] | protein expression of Col1α1 (immunoblotting) [4] | protein expression of Vimentin (immunoblotting) [4] | protein expression of α-SMA (immunoblotting) [4] | expression of SIRT1, a senescence inhibition marker protein (immunoblotting) [6] | degree of cell damage and inflammatory cell infiltration (H&E staining of liver tissue) [8] | expression of fibrosis-related genes (α-SMA, Col1a1, TIMP1, MMP9) increased by TGF-β1 (qPCR) (liver cell line (AML12))
recovered: expression of ZO-1 protein reduced by TGF-β1 (immunoblotting) [5]
